Data on one molecule can be found in paper PMC3135172 (Cell, 2011).

Where no end group is shown, it is not given here.

The test has as its target BPTF bromodomain (human). As to the kind of experiment: ITC. On the technique in general: In ITC the heat of successive injections is recorded.

With GKGLGK(Ac)GGAKR (not fully specified) [H4K12ac peptide], the affinity, expressed as Kd, was 69 ± 1 µM.
